# T1: WD40 domain of Gemin5 (Homo sapiens, UniProt Q8TEQ6)
# T1 sequence (Q8TEQ6 1-739): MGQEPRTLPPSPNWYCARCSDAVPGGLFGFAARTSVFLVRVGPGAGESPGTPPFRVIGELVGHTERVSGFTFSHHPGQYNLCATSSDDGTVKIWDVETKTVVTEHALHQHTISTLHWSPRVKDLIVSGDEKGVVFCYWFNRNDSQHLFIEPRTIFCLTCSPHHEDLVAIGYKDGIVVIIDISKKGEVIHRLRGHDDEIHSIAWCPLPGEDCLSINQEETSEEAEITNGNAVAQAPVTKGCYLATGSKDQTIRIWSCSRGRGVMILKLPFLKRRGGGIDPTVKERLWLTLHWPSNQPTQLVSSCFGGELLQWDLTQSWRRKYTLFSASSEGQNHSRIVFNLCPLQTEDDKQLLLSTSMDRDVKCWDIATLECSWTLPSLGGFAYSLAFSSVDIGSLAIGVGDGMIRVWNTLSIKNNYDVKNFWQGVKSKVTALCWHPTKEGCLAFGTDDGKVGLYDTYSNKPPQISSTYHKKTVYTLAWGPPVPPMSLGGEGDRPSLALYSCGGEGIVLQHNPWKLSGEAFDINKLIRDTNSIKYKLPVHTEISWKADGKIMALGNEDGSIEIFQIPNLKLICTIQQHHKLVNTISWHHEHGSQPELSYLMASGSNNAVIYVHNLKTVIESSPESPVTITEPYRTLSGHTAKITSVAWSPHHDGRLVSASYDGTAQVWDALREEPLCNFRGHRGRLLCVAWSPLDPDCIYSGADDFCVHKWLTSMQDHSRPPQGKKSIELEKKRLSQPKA
# B1: pre-U4 (118-125) Sm site (ssRNA)
# RNA: AAUUUUUG
# B2: pre-U4 (118-125) U120C (ssRNA)
# RNA: AACUUUUG
# B3: pre-U4 (118-125) U122C (ssRNA)
# RNA: AAUUCUUG
# B4: pre-U4 (118-125) U122G (ssRNA)
# RNA: AAUUGUUG
# B5: pre-U4 (118-127) crystal RNA (ssRNA)
# RNA: AAUUUUUGAG
# B6: pre-U4 (118-125) U121C (ssRNA)
# RNA: AAUCUUUG
# Tests used:
# [1] = target: T1, WD40 domain of Gemin5; assay: isothermal titration calorimetry; type: binding
# [2] = target: Gemin5 WD40 Y474A (Homo sapiens, UniProt Q8TEQ6 1-739, Y474A); assay: ITC
# [3] = target: Gemin5 WD40 E197A (Homo sapiens, UniProt Q8TEQ6 1-739, E197A); assay: ITC
# [4] = target: T2, Gemin5 WD40 domain (Homo sapiens, UniProt Q8TEQ6 1-739); assay: ITC
# [5] = target: T2, Gemin5 WD40 domain; assay: crystal structure
# Chain of Gemin5 WD40 E197A (Q8TEQ6 1-739 E197A): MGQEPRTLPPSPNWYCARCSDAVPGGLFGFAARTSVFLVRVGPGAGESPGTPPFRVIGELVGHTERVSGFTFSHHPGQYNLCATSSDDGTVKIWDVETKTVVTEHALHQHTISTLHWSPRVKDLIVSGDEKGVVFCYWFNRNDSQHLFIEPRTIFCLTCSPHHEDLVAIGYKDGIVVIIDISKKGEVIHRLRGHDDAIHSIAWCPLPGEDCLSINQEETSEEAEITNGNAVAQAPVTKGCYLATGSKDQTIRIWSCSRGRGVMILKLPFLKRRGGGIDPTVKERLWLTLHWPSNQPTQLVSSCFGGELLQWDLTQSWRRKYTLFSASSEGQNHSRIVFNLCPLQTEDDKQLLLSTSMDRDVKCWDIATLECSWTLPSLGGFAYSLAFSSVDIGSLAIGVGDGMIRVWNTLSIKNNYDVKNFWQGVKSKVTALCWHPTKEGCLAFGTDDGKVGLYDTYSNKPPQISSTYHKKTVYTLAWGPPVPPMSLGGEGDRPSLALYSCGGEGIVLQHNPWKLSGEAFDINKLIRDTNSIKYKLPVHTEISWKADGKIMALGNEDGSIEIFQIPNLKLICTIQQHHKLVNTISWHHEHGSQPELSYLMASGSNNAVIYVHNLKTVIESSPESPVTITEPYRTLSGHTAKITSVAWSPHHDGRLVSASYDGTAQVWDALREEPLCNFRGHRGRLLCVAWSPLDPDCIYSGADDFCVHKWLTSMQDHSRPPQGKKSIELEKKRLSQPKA
molecule,measurement,setting,value
C[n+]1cn([C@@H]2O[C@H](COP(=O)(O)OP(=O)(O)OP(=O)(O)OC[C@H]3O[C@@H](n4cnc5c(=O)[nH]c(N)nc54)[C@H](O)[C@@H]3O)[C@@H](O)[C@H]2O)c2nc(N)[nH]c(=O)c21 [m^7GpppG],Kd,[1],4 µM
B1,binding result,[2],binds
same,Kd,[3],40 ± 5 µM
B2,binding result,[4],no binding
B3,binding result,[4],no binding
B4,binding result,[4],no binding
B5,binding result,[5],binds
B6,Kd,[4],11 ± 2 µM

# Reference: article PMC5131778 (Genes & Development, 2016)
